The values below come from publication PMC5687670, “hYSK1 promotes cancer cell proliferation and migration through negative regulation of p16^INK4a under hypoxic conditions” (Oncotarget, 2017).

The assay deals with T1, hYSK1 on the ProtoArray Human Protein Microarray (human, UniProt O00506 1-426).
T1 construct: hYSK1, human Ste20 family serine/threonine protein kinase; one of 1,800 recombinant human proteins on the array; also called human analog of YSK1; source: bought: ProtoArray Human Protein Microarray (v.1.0), recombinant human protein printed on nitrocellulose slide
T1 sequence (O00506 whole entry): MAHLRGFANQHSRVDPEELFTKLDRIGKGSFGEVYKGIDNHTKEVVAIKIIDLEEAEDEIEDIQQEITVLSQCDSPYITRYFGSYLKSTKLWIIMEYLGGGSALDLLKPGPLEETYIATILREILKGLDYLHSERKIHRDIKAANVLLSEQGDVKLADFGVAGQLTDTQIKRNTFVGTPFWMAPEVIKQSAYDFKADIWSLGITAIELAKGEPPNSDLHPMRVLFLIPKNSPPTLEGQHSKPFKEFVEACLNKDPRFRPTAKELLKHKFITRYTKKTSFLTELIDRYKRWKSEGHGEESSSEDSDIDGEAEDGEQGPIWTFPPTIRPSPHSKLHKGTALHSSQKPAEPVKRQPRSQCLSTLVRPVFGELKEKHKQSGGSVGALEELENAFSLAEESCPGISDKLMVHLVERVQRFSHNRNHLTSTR
Kind of assay: peptide or protein array; ProtoArray Human Protein Microarray (v.1.0), 1,800 recombinant human proteins on nitrocellulose slides, blocked and probed with biotin-labeled p16^INK4a; detected with streptavidin-Alexa Fluor 647. The following applies: both partners purified.

B1: biotin-labeled p16^INK4a (natural protein, UniProt P42771 1-156, looked up)
chain: MEPAAGSSMEPSADWLATAAARGRVEEVRALLEAGALPNAPNSYGRRPIQVMMMGSARVAELLLLHGAEPNCADPATLTRPVHDAAREGFLDTLVVLHRAGARLDVRDAWGRLPVDLAEELGHRDVARYLRAAAGGTRGSNHARIDAAEGPSDIPD
modifications: biotin (biotinylated; site not stated)
notes: probe for the protein microarray
With B1, the binding result is given as “binds”.
